Experimental data taken from paper PMC6127144.

Biological target: human plasma membrane Ca2+-ATPase 1, full-length human PMCA1d (human) (UniProt P20020)
Sequence of UniProt P20020 (P20020 other isoform, or with tags, fused parts or gaps): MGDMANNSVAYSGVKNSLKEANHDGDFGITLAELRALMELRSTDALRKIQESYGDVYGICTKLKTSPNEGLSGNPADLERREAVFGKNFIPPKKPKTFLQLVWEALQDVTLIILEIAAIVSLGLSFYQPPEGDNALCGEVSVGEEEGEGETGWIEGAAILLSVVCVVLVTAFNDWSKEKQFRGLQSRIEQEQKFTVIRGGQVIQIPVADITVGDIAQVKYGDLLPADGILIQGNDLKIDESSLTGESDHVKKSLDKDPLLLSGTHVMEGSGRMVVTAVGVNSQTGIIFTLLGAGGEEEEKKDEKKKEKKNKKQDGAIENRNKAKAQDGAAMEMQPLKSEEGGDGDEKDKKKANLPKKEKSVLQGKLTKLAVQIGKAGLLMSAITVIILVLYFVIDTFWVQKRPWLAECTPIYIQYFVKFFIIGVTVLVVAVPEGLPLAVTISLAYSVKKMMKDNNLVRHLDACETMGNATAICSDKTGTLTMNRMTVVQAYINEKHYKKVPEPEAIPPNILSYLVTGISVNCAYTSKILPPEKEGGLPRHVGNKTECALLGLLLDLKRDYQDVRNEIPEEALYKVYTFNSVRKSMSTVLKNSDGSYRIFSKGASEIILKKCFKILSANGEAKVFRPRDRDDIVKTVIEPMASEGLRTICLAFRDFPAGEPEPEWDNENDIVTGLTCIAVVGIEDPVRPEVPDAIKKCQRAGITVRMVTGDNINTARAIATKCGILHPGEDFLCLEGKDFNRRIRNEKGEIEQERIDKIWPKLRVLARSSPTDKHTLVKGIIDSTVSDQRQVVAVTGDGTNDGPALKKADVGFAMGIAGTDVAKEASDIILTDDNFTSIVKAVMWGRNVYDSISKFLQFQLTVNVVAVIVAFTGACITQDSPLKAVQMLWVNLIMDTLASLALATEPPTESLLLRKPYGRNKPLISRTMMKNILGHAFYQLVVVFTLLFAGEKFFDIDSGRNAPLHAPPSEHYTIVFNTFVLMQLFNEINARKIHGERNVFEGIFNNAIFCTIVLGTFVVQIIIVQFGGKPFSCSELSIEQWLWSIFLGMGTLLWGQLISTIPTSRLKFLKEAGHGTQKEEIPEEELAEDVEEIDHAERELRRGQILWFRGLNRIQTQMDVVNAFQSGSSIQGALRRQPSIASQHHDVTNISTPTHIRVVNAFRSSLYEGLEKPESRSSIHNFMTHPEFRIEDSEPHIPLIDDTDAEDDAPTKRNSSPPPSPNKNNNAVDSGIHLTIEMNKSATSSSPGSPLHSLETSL

Vmax of the ATPase activity of purified hPMCA1-NPTN proteins (nmol mg^-1 min^-1): 326
Substance: neuroplastin (natural protein)
